In general, stoichiometry N refers to the number of molecules, sites or subunits per partner or assembly.

Experimental findings from article PMC2809091, “Dissociation of the Octameric Enolase from S. Pyogenes - One Interface Stabilizes Another” (PLoS ONE, 2010) are described below.

The series concerns the molecule itself. Description: AUC; sedimentation velocity, 35,000 rpm, 15°C; 2.7 µM enolase (subunits) in TME buffer (50 mM Tris/HCl, 1 mM Mg(OAc)2, 0.1 mM EDTA, pH 7.4) without NaClO4; c(s) analysis (SEDFIT), mass also from DLS radius and DCDT+; octamer.

B1: wild type octameric enolase from S. pyogenes (enzyme, UniProt P69949 1-435, looked up)
chain: MSIITDVYAREVLDSRGNPTLEVEVYTESGAFGRGMVPSGASTGEHEAVELRDGDKSRYLGLGTQKAVDNVNNIIAEAIIGYDVRDQQAIDRAMIALDGTPNKGKLGANAILGVSIAVARAAADYLEVPLYTYLGGFNTKVLPTPMMNIINGGSHSDAPIAFQEFMIMPVGAPTFKEGLRWGAEVFHALKKILKERGLVTAVGDEGGFAPKFEGTEDGVETILKAIEAAGYEAGENGIMIGFDCASSEFYDKERKVYDYTKFEGEGAAVRTSAEQVDYLEELVNKYPIITIEDGMDENDWDGWKVLTERLGKRVQLVGDDFFVTNTEYLARGIKENAANSILIKVNQIGTLTETFEAIEMAKEAGYTAVVSHRSGETEDSTIADIAVATNAGQIKTGSLSRTDRIAKYNQLLRIEDQLGEVAQYKGIKSFYNLKK
notes: enolase (EC 4.2.1.11) of Streptococcus pyogenes; no removal of the His tag is described; also called wild type enolase; wild type enzyme; source: E. coli BL21(DE3), pET-14b, purified (Ni-NTA, dialysis, (NH4)2SO4 precipitation)
Turning to B1, the “stoichiometry N” value came out at 8.
